Tests used:
iC3b = target: T1, iC3b (UniProt P01024 23-667; P01024 749-1303; P01024 1321-1663); assay: SPR (Biacore 2000), analyte over iC3b surface on CM5 chip
T1 construct: Made on the chip from deposited C3b with FI and the cofactor FH
Procedure: (§1) C3-fragment binding. Equal amounts of C3b (˜4000 RUs) (from Complement Technology, Tyler, Tex., USA) were immobilized onto 3 flow-cells (fc) of a CM5 chip (Biacore) by initial amine-coupling of a small amount of C3b onto fc 2-4 and further deposition of the vast majority of C3b molecules via its reactive thioester through an on-chip assembly of the AP-convertase (C3bBb) and subsequent exposure to and proteolytic activation of C3 (24). The surface was washed overnight with a buffer flow of 10 ul/min to allow stabilization of the physiologically prepared C3b-surface. […] C3b molecules on fc3 and fc4 were processed with FI in the presence of the cofactors FH or soluble complement receptor 1 (sCR1) to yield iC3b or C3dg (the latter as described in Morgan et al., 2011, supra), respectively. A dummy surface (fc1) was prepared by two consecutive cycles of surface activation with standard amine coupling reagents and quenching by ethanolamine.
(§2) Due to the physiological deposition of C3b and subsequent trimming with FI, both, the iC3b and the C3dg, surfaces likely carry miniscule amounts of residual C3b molecules, which were not readily accessible by FI. […] Deposition, proteolytic processing and all interactions studies were performed in HBS-P+buffer (i.e. 10 mM HEPES-buffered 150 mM saline (pH7.4), 0.005% (v/v) surfactant p20, 1 mM MgCl₂) at 25° C.

C3b = target: T2, C3b (UniProt P01024 749-1663; P01024 23-667); assay: SPR (Biacore 2000), analyte over C3b deposited on CM5 chip
T2 construct: Immobilised on a CM5 chip; A small amount was amine-coupled and the majority deposited via the reactive thioester by on-chip AP convertase; also called complement fragment C3b; deposited C3b
Procedure: as §1, §2

C3dg = target: T3, C3dg (UniProt P01024 955-1303); assay: SPR (Biacore 2000), analyte over C3dg surface on CM5 chip
T3 construct: Made on the chip from deposited C3b with FI and the cofactor sCR1
Procedure: as §1, §2

Measured: binding result

T1 sequence (P01024 23-667, chain 1 of 3): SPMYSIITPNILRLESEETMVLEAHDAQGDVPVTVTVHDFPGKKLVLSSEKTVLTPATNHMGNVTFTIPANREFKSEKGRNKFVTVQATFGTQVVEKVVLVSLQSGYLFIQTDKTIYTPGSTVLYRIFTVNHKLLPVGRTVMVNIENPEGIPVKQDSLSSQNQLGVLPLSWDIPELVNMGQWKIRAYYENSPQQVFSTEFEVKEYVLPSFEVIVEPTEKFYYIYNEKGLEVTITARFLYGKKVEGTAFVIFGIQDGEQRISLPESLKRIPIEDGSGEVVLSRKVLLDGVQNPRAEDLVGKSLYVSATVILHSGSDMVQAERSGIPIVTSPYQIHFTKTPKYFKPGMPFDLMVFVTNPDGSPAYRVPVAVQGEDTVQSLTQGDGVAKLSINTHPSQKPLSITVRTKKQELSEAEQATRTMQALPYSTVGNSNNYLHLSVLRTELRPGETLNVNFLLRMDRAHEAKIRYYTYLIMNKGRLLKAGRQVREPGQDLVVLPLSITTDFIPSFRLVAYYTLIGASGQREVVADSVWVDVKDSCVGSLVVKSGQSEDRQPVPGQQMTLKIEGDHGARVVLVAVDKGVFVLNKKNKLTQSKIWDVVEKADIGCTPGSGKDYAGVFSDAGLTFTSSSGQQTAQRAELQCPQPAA
T1 sequence (P01024 749-1303, chain 2 of 3): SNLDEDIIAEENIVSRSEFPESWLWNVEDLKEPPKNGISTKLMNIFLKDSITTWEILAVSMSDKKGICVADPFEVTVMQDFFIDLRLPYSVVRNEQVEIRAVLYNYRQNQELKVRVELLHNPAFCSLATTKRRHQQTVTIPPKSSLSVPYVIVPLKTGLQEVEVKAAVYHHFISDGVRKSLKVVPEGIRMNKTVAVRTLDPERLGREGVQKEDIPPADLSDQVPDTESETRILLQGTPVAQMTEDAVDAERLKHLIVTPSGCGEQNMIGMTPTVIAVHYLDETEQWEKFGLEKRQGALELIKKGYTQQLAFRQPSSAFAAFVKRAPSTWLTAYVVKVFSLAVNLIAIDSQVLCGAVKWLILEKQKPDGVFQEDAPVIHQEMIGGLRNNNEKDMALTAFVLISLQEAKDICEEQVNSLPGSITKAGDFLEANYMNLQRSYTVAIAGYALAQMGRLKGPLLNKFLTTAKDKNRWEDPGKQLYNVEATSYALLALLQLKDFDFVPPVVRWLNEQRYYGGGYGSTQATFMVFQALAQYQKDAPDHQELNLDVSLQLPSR
T1 sequence (P01024 1321-1663, chain 3 of 3): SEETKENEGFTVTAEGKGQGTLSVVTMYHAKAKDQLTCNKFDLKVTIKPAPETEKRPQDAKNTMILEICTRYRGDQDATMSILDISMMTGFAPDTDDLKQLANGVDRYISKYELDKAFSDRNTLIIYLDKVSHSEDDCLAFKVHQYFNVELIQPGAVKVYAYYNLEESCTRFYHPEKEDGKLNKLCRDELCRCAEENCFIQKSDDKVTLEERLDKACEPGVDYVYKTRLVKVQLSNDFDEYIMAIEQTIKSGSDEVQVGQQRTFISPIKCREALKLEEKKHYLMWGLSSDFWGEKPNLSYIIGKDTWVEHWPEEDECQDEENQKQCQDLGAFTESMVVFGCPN
T2 sequence (P01024 749-1663 limits assumed, chain 1 of 2): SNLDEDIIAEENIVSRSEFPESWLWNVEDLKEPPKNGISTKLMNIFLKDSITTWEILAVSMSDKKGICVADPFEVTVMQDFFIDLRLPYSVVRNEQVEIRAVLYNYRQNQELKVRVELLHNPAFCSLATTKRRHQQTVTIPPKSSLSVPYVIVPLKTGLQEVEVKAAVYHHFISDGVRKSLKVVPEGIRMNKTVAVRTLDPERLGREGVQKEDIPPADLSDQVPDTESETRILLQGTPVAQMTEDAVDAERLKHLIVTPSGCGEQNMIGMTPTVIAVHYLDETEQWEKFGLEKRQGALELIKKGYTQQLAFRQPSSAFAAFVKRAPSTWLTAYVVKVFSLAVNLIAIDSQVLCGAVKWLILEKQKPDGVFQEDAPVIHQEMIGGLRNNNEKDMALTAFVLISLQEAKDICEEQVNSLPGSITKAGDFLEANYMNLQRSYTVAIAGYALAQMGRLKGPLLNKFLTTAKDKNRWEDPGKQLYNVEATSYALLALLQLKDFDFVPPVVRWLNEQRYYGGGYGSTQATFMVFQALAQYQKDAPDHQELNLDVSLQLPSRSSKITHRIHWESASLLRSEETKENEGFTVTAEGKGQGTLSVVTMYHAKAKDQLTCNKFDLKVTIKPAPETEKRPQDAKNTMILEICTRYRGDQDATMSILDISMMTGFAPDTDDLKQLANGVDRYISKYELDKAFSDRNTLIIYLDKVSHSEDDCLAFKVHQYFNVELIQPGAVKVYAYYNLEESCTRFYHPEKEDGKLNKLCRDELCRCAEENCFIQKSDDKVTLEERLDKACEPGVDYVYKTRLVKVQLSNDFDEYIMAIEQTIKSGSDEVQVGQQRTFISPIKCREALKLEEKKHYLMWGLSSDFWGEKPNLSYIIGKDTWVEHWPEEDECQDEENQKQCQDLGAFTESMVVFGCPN
T2 sequence (P01024 23-667 limits assumed, chain 2 of 2): as the sequence (P01024 23-667, chain 1 of 3) above
T3 sequence (P01024 955-1303 limits assumed): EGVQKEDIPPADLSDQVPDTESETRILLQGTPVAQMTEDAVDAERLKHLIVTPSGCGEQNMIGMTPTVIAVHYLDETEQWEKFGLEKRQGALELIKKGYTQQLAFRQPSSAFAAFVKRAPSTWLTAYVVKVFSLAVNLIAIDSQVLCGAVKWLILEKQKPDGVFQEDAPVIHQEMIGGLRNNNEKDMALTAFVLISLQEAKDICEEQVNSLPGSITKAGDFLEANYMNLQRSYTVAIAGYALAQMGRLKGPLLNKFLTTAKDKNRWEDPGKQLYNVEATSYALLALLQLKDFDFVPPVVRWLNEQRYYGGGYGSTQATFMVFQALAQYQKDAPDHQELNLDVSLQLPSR

B1: FH15-18 (other, UniProt P08603 868-1104, looked up)
chain: IPCSQPPQIEHGTINSSRSSQESYAHGTKLSYTCEGGFRISEENETTCYMGKWSSPPQCEGLPCKSPPEISHGVVAHMSDSYQYGEEVTYKCFEGFGIDGPAIAKCLGEKWSHPPSCIKTDCLSLPSFENAIPMGEKKDVYKAGEQVTYTCATYYKMDGASNVTCINSRWTGRPTCRDTSCVNPPTVQNAYIVSRQMSKYPSGERVRYQCRSPYEMFGDEEVMCLNGNWTEPPQCKD
notes: domain: CCPs 15-18; Negative control analyte in SPR
no binding: all assays above
